Source: patent US20030077318A1 (Scripps Research, published 2003)

Target: T1, VSV-7 (Vesicular stomatitis virus)
T1 construct: also called GYVYQGL
Assay: competitive RIA against [^125I]VSV-8 on K^bsol, P30 gel filtration, 23° C.

B1: soluble H-2K^b (K^bsol), heterodimer of truncated K^b heavy chain and murine β-2 microglobulin, purified empty from Drosophila cells (other)
alpha: GPHSLRYFVTAVSRPGLGEPRYMEVGYVDDTEFVRFDSDAENPRYEPRARWMEQEGPEYWERETQKAKGNEQSFRVDLRTLLGYYNQSKGGSHTIQVISGCEVGSDGRLLRGYQQYAYDGCDYIALNEDLKTWTAADMAALITKHKWEQAGEAERLRAYLEGTCVEWLRRYLKNGNATLLRTDSPKAHVTHHSRPEDKVTLRCWALGFYPADITLTWQLNGEELIQDMELVETRPAGDGTFQKWASVVVPLGKEQYYTCHVYHQGLPEPLTLRW
b2m: IQKTPQIQVYSRHPPENGKPNILNCYVTQFHPPHIEIQMLKNGKKIPKVEMSDMSFSKDWSFYILAHTEFTPTETDTYACRVKHASMAEPKTVYWDRDM
notes: also called H-2K^b Sol; soluble K^b
Kd: 53 nM
